± gives the standard deviation.
Assay: protein stability index of a GFP-peptide fusion (GPS, HEK-293T) (PSI 1-6); higher = more stable
Conditions: c terminus: a fixed tail appended
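Note: 24-mer peptide tiles fused after GFP, lentivirally expressed, FACS-sorted into six equal bins by GFP/DsRed ratio, decoded by Illumina sequencing, PSI is the read-weighted mean bin number.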

| Sequence | protein stability index (treatment: DMSO) | protein stability index (treatment: MLN4924 1 uM, 8 h) |
| --- | --- | --- |
| ESSPSHDRSRTVSASSTGDLPKAK [SRPK2] | 5.16 ± 0.33 | 5.22 ± 0.16 |
| IMLKNISQDERLDVLLTLKHTVKE [IQUB] | 2.45 ± 0.56 | 2.09 ± 0.34 |
| AVLGRYVPGLLLSYLMLVTVMMWP [RETREG3] | 3.41 ± 0.13 | 3.1 ± 0.47 |
| KYAVPALEAHCVEFLTKHLRADNA [BTBD1] | 2.54 ± 0.25 | 2.74 ± 0.17 |
| MVIQLLAIMCVSCICWSPFLVTMA [PTGFR] | 3.11 ± 0.45 | 3.22 ± 0.36 |
| MQVFAKLGTDPTHVMGLYPDLLPT [VPS39] | 2.16 ± 0.27 | 2.35 ± 0.25 |
| QDFLLFSPEVESLPVASSSTLLPL [NFE2L1] | 3.34 ± 0.79 | 3.37 ± 0.57 |
| KHMFERSFTQGEGARPLSTRVPRA [MATN2] | 4.07 ± 0.18 | 3.85 ± 0.35 |
| PELLSTHPFFDTAEPDMDDPAYIA [INTS4] | 5.12 ± 0.22 | 5.16 ± 0.12 |
| SQEAGLPAGAGPSPTFPALGIGMD [SEPHS2] | 4.64 ± 0.22 | 4.65 ± 0.25 |
| SWEPLSGPSTPSPVAAQFTSEGTT [FCHO1] | 4.61 ± 0.27 | 4.74 ± 0.22 |
| MPSGSEEKILRELSEEEEDEEEEE [KCNA4] | 5.53 ± 0.59 | 5.69 ± 0.14 |
| MVSSVLCRCVASPPPDAAATAASS [SLC25A25] | 2.94 ± 0.24 | 2.92 ± 0.22 |
| HCTTVDGQRQLMVPARDGTSCKLT [ADAMTSL2] | 4.41 ± 0.2 | 4.44 ± 0.11 |
| QFEPQLTLWDVFGANKEVQELLER [RSAD1] | 3.24 ± 0.26 | 3.8 ± 0.47 |
| SLESEEEEYPGITAEDSNDIYILP [BCL2L13] | 5.06 ± 0.22 | 5.05 ± 0.23 |
| EASQLRRLNIKKDDEFFHFVLLCF [TMEM40] | 2.15 ± 0.25 | 2.22 ± 0.26 |
| LFSELAEDKENYKKFYEAFSKNLK [HSP90AB1] | 2.83 ± 0.23 | 3.62 ± 0.17 |
| FYFKLTDLYKKVKKNSSPPLSLYG [CRY1] | 2.7 ± 0.51 | 2.69 ± 0.49 |
| NLIEKSASLDNGGCALTTFSVLEG [SOAT1] | 3.28 ± 0.37 | 3.32 ± 0.32 |
| QRLPRSAPPGSLVTKVTAVDADAG [PCDHGC5] | 4.76 ± 0.21 | 4.82 ± 0.3 |
| DEEVVATAGDRLTEFRKGAQSLPG [IRX6] | 5.12 ± 0.2 | 5.19 ± 0.22 |
| REENEKLRLENSSLFSQALKDEEA [CCDC89] | 5.41 ± 0.46 | 5.41 ± 0.37 |

| Sequence | protein stability index (treatment: DMSO) | protein stability index (treatment: MLN4924 1 uM, 8 h) |
| --- | --- | --- |
| PEPVYKLTQRQVNITVQKKVSQWW [HACD3] | 2.35 ± 0.49 | 2.51 ± 0.31 |
| QQLDLRWNNVGLLGGRALMNCLPS [LRRC45] | 2.65 ± 0.2 | 2.48 ± 0.2 |
| ALEALEPFWEVLVRSTETVERDNM [HDAC6] | 2.95 ± 0.23 | 3.12 ± 0.45 |
| APVLVAAPHSTFFDPIVLLPCDLP [LPCAT4] | 2.25 ± 0.27 | 2.47 ± 0.32 |
| VVSMTTVGYGDMYPVTIGGKIVGS [KCNA1] | 2.29 ± 0.36 | 2.14 ± 0.24 |
| NTEVPARNLYAYIQKLTQIETGEN [PTPRD] | 3.39 ± 0.22 | 3.37 ± 0.37 |
| QLRNVRERLAKNLVEKGVLTTEKQ [GOLPH3] | 3.68 ± 0.34 | 3.84 ± 0.17 |
| EVYYAKKKRRAQQAPPQDSSNKKE [DYRK1B] | 4.45 ± 0.28 | 4.77 ± 0.24 |
| ALLDLHFPSDHLGDLGDPFHLGLE [TFE3] | 2.37 ± 0.36 | 2.32 ± 0.28 |
| VRWLRPVHRQLGEANEEFALRVQQ [AUP1] | 3.1 ± 0.25 | 3.02 ± 0.19 |
| NKRAALQALKRKKRFEKQLTQIDG [CHMP4C] | 3.95 ± 0.42 | 3.9 ± 0.34 |
| ADRPFSAPWWFWLSLTGVSLAGAL [POMT2] | 2.93 ± 0.7 | 3 ± 0.48 |
| GIPWEAGARQISYSIPEELEKGSF [PCDHGA10] | 4.24 ± 0.059 | 3.87 ± 0.34 |
| FQRAMHDYNQAEMKQRDNCKIRIQ [STX11] | 3.08 ± 0.33 | 3.44 ± 0.37 |
| RDNDHPDHSSRELSKILAKLERLK [FUT8] | 2.39 ± 0.25 | 2.27 ± 0.24 |
| QVAKREREAATKHSKASLPTGEGS [CHCHD6] | 5.32 ± 0.47 | 5.26 ± 0.33 |
| FSPDFTLRNTLKSTSEDSLVKQEC [FAN1] | 2.67 ± 0.58 | 3.43 ± 0.85 |
| VPERLLVVLDMEEGTLGYAIGGTY [SPSB2] | 2.69 ± 0.74 | 2.35 ± 0.56 |
| QKEGEFSTCFTELQRDFLKQRPTK [OAS1] | 4.26 ± 0.45 | 4.22 ± 0.3 |
| SNSLAIAILMKAYQRFRQKSKASF [PTGFR] | 2.1 ± 0.25 | 2.23 ± 0.19 |
| ADNKIVSHLLVAEPEKIYAMPDPT [ESRRG] | 4.23 ± 0.17 | 4.22 ± 0.27 |
| ELHRRLDEEQQVLLSRLEEEEQDI [TRIM39] | 5.426 ± 0.033 | 5.49 ± 0.17 |
| HGHNIGKKMSCQQFIANLDQLNDG [PSD2] | 3.26 ± 0.24 | 3.29 ± 0.16 |

| Sequence | protein stability index (treatment: DMSO) | protein stability index (treatment: MLN4924 1 uM, 8 h) |
| --- | --- | --- |
| QIILENQKNFGLYVQEKRDGLKRR [RAD54B] | 2.41 ± 0.47 | 2.97 ± 0.32 |
| KSWHDMQTTTAYKKTHETLSHAGQ [TPD52L1] | 4.01 ± 0.15 | 3.96 ± 0.18 |
| LEQMGALAVRGSRRERELERRELA [ZBED3] | 5 ± 0.37 | 4.76 ± 0.34 |
| SINQRLNKRERSKLKNLRRKQRRR [RNF180] | 3.9 ± 0.14 | 3.93 ± 0.24 |
| MIGLYEPELGSGAGPAGTGTPSLL [EMID1] | 3.89 ± 0.53 | 3.65 ± 0.71 |
| LSKILAKLERLKQQNEDLRRMAES [FUT8] | 2.9 ± 0.22 | 3.12 ± 0.24 |
| LTVNTEAQQLLREFEEATGEAGWG [FOXJ1] | 4.55 ± 0.14 | 4.62 ± 0.073 |
| LALLPAAWEDSHGSQDGHFVLSCS [SCNN1D] | 2.92 ± 0.083 | 2.9 ± 0.34 |
| MKDISNLEENDETRFILSKVPSEA [SLC6A17] | 4.91 ± 0.24 | 4.94 ± 0.15 |
| SLIPPRSEQLVNFTGKAEMGGPFS [TMEM106C] | 3.65 ± 0.34 | 3.47 ± 0.3 |
| LKGYPSLMRSQSPKAQPQTWKSGK [TRIM29] | 3.88 ± 0.36 | 3.93 ± 0.22 |
| MTVPATAIYFTAYDQLKAFLCGRA [SLC25A39] | 2.35 ± 0.51 | 2.23 ± 0.33 |
| DKLLKHMIIEHKIVIADVKLVADF [ZNF277] | 3.07 ± 0.33 | 2.82 ± 0.72 |
| YIPVIKRALNSVPVIIAAVGTRQN [RHOBTB3] | 2.35 ± 0.52 | 2.24 ± 0.35 |
| RVLRGRPGAGSRRRGRMALCGQAA [FBXO33] | 4 ± 0.18 | 4.74 ± 0.22 |
| ALRKTGQYSGMLDCARRILAREGV [SLC25A25] | 2.29 ± 0.18 | 2.27 ± 0.15 |
| SEDLDGHSDPEESFARDLPDFPSI [RETREG3] | 5.33 ± 0.2 | 5.13 ± 0.45 |
| SSGEDDDFKSCPQGPQGREGLAFL [PWWP2B] | 4.75 ± 0.23 | 4.85 ± 0.18 |
| LTIRESILINNGSRIKGWWVFHHY [TMEM120A] | 3.1 ± 0.7 | 2.73 ± 0.92 |
| QCNICGKCFSCNSNLHRHQRTHTG [ZNF263] | 4.44 ± 0.13 | 4.63 ± 0.29 |
| FDIRILMAKSVKYTVNFLEAKEGD [CARM1] | 2.27 ± 0.28 | 2.33 ± 0.33 |
| LGTELAERQGNGQQAMSLAILRVI [KCNA3] | 2.42 ± 0.19 | 2.52 ± 0.12 |
| SLKKGSLVKNLKDTLGLGKTRRKT [NCK2] | 3.96 ± 0.18 | 3.81 ± 0.31 |

| Sequence | protein stability index (treatment: DMSO) | protein stability index (treatment: MLN4924 1 uM, 8 h) |
| --- | --- | --- |
| CCSRYLCMGAMSLFLPCLLCYPPA [SPRY1] | 2.82 ± 0.47 | 2.58 ± 0.63 |
| PLVTAIEIVSIWILSFILAIPEAI [EDNRA] | 3.48 ± 0.8 | 3.68 ± 0.15 |
| LTWSELFVLNAAQCSMPLHVAPLL [NR2F2] | 2.98 ± 0.21 | 3.16 ± 0.32 |
| TPLEPDAKDLPCDSKPESALGAPS [TBX5] | 5.41 ± 0.29 | 5.36 ± 0.23 |
| PQHAADTPKSGEPRVPEEAAQDRP [YJU2B] | 5.62 ± 0.26 | 5.42 ± 0.26 |
| KIINTKKLSARDHQKLEREARICR [CAMK2B] | 3.45 ± 0.29 | 3.88 ± 0.24 |
| DTRRLITKPQNLNDAYGPPSNFLE [SNX3] | 3.69 ± 0.17 | 3.88 ± 0.17 |
| ARVLDRRGCSRVEGGGTSLHVACE [ANKRD9] | 3.57 ± 0.27 | 3.47 ± 0.46 |
| ALPDSVLRRFVVRTMCAVLGLVAR [AUP1] | 2.51 ± 0.21 | 2.32 ± 0.44 |
| ESSNDFGPYEGGGPVAGLDDSGGP [ZBTB22] | 5.03 ± 0.42 | 5 ± 0.13 |
| RQTSTKAVQHFYNIKLEGKVPMHK [ESRRG] | 3.32 ± 0.11 | 3.5 ± 0.26 |
| GEEALSLQALDPQQCVDKESSLGS [SLC22A15] | 5.36 ± 0.33 | 5.36 ± 0.32 |
| ITKQGDGVDFLSWFLNALHSALGG [USP39] | 2.22 ± 0.47 | 2.11 ± 0.21 |
| PKMLVDLLSQKKTISFLGCAIQMF [OR10K2] | 2.84 ± 0.58 | 2.93 ± 0.62 |
| GHGNKVLCMDWCKDKRRIVSSSQD [GNB5] | 3.64 ± 0.28 | 3.85 ± 0.45 |
| NLLALGTDRKLDDGDDKVFRRAPS [PPFIA4] | 4.51 ± 0.25 | 4.5 ± 0.24 |
| ELQIELLRETKRKYESVLQLGRAL [ARFIP2] | 2.54 ± 0.12 | 2.55 ± 0.23 |
| ANRPDPNTPMEETVRAMTHVINQG [KCNAB2] | 4.75 ± 0.13 | 4.78 ± 0.12 |
| WTHDGIDINNNFPDLNTLLWEAED [CPXM2] | 3.44 ± 0.098 | 3.8 ± 0.45 |
| QGENQEHLVIAEMMELGSRSRGAS [FATE1] | 4.73 ± 0.34 | 4.73 ± 0.12 |

From the supplement of paper PMC10567573
